Experimental data as given in PMC4309839, “Functional classification and biochemical characterization of a novel rho class glutathione S-transferase in Synechocystis PCC 6803” (FEBS Open Bio, 2014).

Test system: O=C(O)C(Cl)Cl
Assay: purified protein
Type: biochemical, Synechocystis sp. PCC 6803
Details: 1 mM GSH, 0.05-1 mM DCA, 100 mM phosphate pH 7.4, 37 °C

Q: What does the source list for “sll1545 (Synechocystis sp. PCC 6803 substr. Kazusa)”?
A: Km: 0.14 ± 0.02 mM; Vmax: 11.8 µmol/min; kcat: 82.17 ± 0.23 s⁻¹; kcat/Km: 574600 ± 990 M⁻¹ s⁻¹
